Starred links: 1 amine or outer side, 2 acyl side, 3 side chain; linkers in the order of their positions; H or OH if unused. Non-standard residues stand in square brackets, D forms with d. Groups on a side chain read outwards from the residue. No end group written: not given here. *: point of attachment. C20 diacid = O=C(O)CCCCCCCCCCCCCCCCCCC(=O)*; γGlu = O=C(O)[C@H](CCC(=O)[*:2])N[*:1]; 4Pal = N[C@@H](Cc1ccncc1)C(=O)O; αMeL = CC(C)C[C@](C)(N)C(=O)O; AEEA = NCCOCCOCC(=O)O; Aib = CC(C)(N)C(=O)O
Assays:
Assay in all cases: cell-based or functional assay
human glucagon receptor = human glucagon receptor (human, UniProt P47871 26-477)
[1] = molecular target: T1, human glucose-dependent insulinotropic peptide receptor (human, UniProt P48546 22-466)
T1 sequence (looked up): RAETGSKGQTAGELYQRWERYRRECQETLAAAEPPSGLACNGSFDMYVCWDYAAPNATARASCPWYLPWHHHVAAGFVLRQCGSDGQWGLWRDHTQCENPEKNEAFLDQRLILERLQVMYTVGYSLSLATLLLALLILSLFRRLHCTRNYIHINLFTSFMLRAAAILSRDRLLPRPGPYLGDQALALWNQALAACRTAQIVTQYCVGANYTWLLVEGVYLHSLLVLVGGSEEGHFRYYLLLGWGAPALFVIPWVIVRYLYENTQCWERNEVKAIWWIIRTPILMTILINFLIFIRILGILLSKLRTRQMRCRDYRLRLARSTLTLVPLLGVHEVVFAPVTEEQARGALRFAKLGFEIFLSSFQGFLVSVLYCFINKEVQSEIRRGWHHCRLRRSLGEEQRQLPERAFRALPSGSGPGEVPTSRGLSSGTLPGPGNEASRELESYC

human GLP-1 receptor = human GLP-1 receptor (human, UniProt P43220 24-463)

human glucagon receptor, sequence (P47871 26-477): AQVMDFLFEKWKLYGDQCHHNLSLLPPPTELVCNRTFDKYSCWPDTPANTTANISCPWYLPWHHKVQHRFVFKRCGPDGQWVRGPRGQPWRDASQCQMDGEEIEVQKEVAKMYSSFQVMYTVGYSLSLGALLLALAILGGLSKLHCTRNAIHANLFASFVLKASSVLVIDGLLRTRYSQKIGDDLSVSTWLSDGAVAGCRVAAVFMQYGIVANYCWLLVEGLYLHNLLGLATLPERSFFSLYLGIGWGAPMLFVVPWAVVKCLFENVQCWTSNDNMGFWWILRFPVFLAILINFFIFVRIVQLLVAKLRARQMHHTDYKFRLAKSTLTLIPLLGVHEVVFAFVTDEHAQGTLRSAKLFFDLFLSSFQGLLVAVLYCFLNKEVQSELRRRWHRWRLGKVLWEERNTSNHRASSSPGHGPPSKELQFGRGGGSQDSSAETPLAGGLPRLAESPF

B1: Example 89 (peptide)
peptide: Y[Aib]EGTLISDYSI[αMeL]LDKK([AEEA-AEEA-γGlu-C20 diacid])HQ[Aib]DFVE[4Pal]LLEAGPSSGAPPPS-NH2
modifications: N-terminus assumed
SMILES: CC[C@H](C)[C@H](NC(=O)[C@H](CC(C)C)NC(=O)[C@@H](NC(=O)CNC(=O)[C@H](CCC(=O)O)NC(=O)C(C)(C)NC(=O)[C@@H](N)Cc1ccc(O)cc1)[C@@H](C)O)C(=O)N[C@@H](CO)C(=O)N[C@@H](CC(=O)O)C(=O)N[C@@H](Cc1ccc(O)cc1)C(=O)N[C@@H](CO)C(=O)N[C@H](C(=O)N[C@@](C)(CC(C)C)C(=O)N[C@@H](CC(C)C)C(=O)N[C@@H](CC(=O)O)C(=O)N[C@@H](CCCCN)C(=O)N[C@@H](CCCCNC(=O)COCCOCCNC(=O)COCCOCCNC(=O)CC[C@H](NC(=O)CCCCCCCCCCCCCCCCCCC(=O)O)C(=O)O)C(=O)N[C@@H](Cc1c[nH]cn1)C(=O)N[C@@H](CCC(N)=O)C(=O)NC(C)(C)C(=O)N[C@@H](CC(=O)O)C(=O)N[C@@H](Cc1ccccc1)C(=O)N[C@H](C(=O)N[C@@H](CCC(=O)O)C(=O)N[C@@H](Cc1ccncc1)C(=O)N[C@@H](CC(C)C)C(=O)N[C@@H](CC(C)C)C(=O)N[C@@H](CCC(=O)O)C(=O)N[C@@H](C)C(=O)NCC(=O)N1CCC[C@H]1C(=O)N[C@@H](CO)C(=O)N[C@@H](CO)C(=O)NCC(=O)N[C@@H](C)C(=O)N1CCC[C@H]1C(=O)N1CCC[C@H]1C(=O)N1CCC[C@H]1C(=O)N[C@@H](CO)C(N)=O)C(C)C)[C@@H](C)CC
Human glucagon receptor
  hGcgR cAMP Rel EC50: > 5 µM
[1]
  hGIPR cAMP Rel EC50: 0.00687 nM
Human GLP-1 receptor
  hGLP1R cAMP Rel EC50: > 5 µM

B2: Example 83 (peptide)
peptide: Y[Aib]EGTFISDYSI[αMeL]LDEK([AEEA-AEEA-γGlu-C20 diacid])HQ[Aib]DFVE[4Pal]LLATGPSSGAPPPS-NH2
modifications: N-terminus assumed
SMILES: CC[C@H](C)[C@H](NC(=O)[C@H](Cc1ccccc1)NC(=O)[C@@H](NC(=O)CNC(=O)[C@H](CCC(=O)O)NC(=O)C(C)(C)NC(=O)[C@@H](N)Cc1ccc(O)cc1)[C@@H](C)O)C(=O)N[C@@H](CO)C(=O)N[C@@H](CC(=O)O)C(=O)N[C@@H](Cc1ccc(O)cc1)C(=O)N[C@@H](CO)C(=O)N[C@H](C(=O)N[C@@](C)(CC(C)C)C(=O)N[C@@H](CC(C)C)C(=O)N[C@@H](CC(=O)O)C(=O)N[C@@H](CCC(=O)O)C(=O)N[C@@H](CCCCNC(=O)COCCOCCNC(=O)COCCOCCNC(=O)CC[C@H](NC(=O)CCCCCCCCCCCCCCCCCCC(=O)O)C(=O)O)C(=O)N[C@@H](Cc1c[nH]cn1)C(=O)N[C@@H](CCC(N)=O)C(=O)NC(C)(C)C(=O)N[C@@H](CC(=O)O)C(=O)N[C@@H](Cc1ccccc1)C(=O)N[C@H](C(=O)N[C@@H](CCC(=O)O)C(=O)N[C@@H](Cc1ccncc1)C(=O)N[C@@H](CC(C)C)C(=O)N[C@@H](CC(C)C)C(=O)N[C@@H](C)C(=O)N[C@H](C(=O)NCC(=O)N1CCC[C@H]1C(=O)N[C@@H](CO)C(=O)N[C@@H](CO)C(=O)NCC(=O)N[C@@H](C)C(=O)N1CCC[C@H]1C(=O)N1CCC[C@H]1C(=O)N1CCC[C@H]1C(=O)N[C@@H](CO)C(N)=O)[C@@H](C)O)C(C)C)[C@@H](C)CC
Human glucagon receptor
  hGcgR cAMP Rel EC50: > 5 µM
[1]
  hGIPR cAMP Rel EC50: 0.0432 nM
Human GLP-1 receptor
  hGLP1R cAMP Rel EC50: > 5 µM

B3: Example 85 (peptide)
peptide: Y[Aib]EGTFISDYSI[αMeL]LDEK([AEEA-AEEA-γGlu-C20 diacid])HQ[Aib]DFVE[4Pal]LLAAGPSSGAPPPS-NH2
modifications: N-terminus assumed
SMILES: CC[C@H](C)[C@H](NC(=O)[C@H](Cc1ccccc1)NC(=O)[C@@H](NC(=O)CNC(=O)[C@H](CCC(=O)O)NC(=O)C(C)(C)NC(=O)[C@@H](N)Cc1ccc(O)cc1)[C@@H](C)O)C(=O)N[C@@H](CO)C(=O)N[C@@H](CC(=O)O)C(=O)N[C@@H](Cc1ccc(O)cc1)C(=O)N[C@@H](CO)C(=O)N[C@H](C(=O)N[C@@](C)(CC(C)C)C(=O)N[C@@H](CC(C)C)C(=O)N[C@@H](CC(=O)O)C(=O)N[C@@H](CCC(=O)O)C(=O)N[C@@H](CCCCNC(=O)COCCOCCNC(=O)COCCOCCNC(=O)CC[C@H](NC(=O)CCCCCCCCCCCCCCCCCCC(=O)O)C(=O)O)C(=O)N[C@@H](Cc1c[nH]cn1)C(=O)N[C@@H](CCC(N)=O)C(=O)NC(C)(C)C(=O)N[C@@H](CC(=O)O)C(=O)N[C@@H](Cc1ccccc1)C(=O)N[C@H](C(=O)N[C@@H](CCC(=O)O)C(=O)N[C@@H](Cc1ccncc1)C(=O)N[C@@H](CC(C)C)C(=O)N[C@@H](CC(C)C)C(=O)N[C@@H](C)C(=O)N[C@@H](C)C(=O)NCC(=O)N1CCC[C@H]1C(=O)N[C@@H](CO)C(=O)N[C@@H](CO)C(=O)NCC(=O)N[C@@H](C)C(=O)N1CCC[C@H]1C(=O)N1CCC[C@H]1C(=O)N1CCC[C@H]1C(=O)N[C@@H](CO)C(N)=O)C(C)C)[C@@H](C)CC
Human glucagon receptor
  hGcgR cAMP Rel EC50: > 5 µM
[1]
  hGIPR cAMP Rel EC50: 0.0359 nM
Human GLP-1 receptor
  hGLP1R cAMP Rel EC50: > 5 µM

B4: Example 86 (peptide)
peptide: Y[Aib]EGTFISDYSI[αMeL]LDEK([AEEA-AEEA-γGlu-C20 diacid])HQ[Aib]DFVE[4Pal]LLAGGPSSGAPPPS-NH2
modifications: N-terminus assumed
SMILES: CC[C@H](C)[C@H](NC(=O)[C@H](Cc1ccccc1)NC(=O)[C@@H](NC(=O)CNC(=O)[C@H](CCC(=O)O)NC(=O)C(C)(C)NC(=O)[C@@H](N)Cc1ccc(O)cc1)[C@@H](C)O)C(=O)N[C@@H](CO)C(=O)N[C@@H](CC(=O)O)C(=O)N[C@@H](Cc1ccc(O)cc1)C(=O)N[C@@H](CO)C(=O)N[C@H](C(=O)N[C@@](C)(CC(C)C)C(=O)N[C@@H](CC(C)C)C(=O)N[C@@H](CC(=O)O)C(=O)N[C@@H](CCC(=O)O)C(=O)N[C@@H](CCCCNC(=O)COCCOCCNC(=O)COCCOCCNC(=O)CC[C@H](NC(=O)CCCCCCCCCCCCCCCCCCC(=O)O)C(=O)O)C(=O)N[C@@H](Cc1c[nH]cn1)C(=O)N[C@@H](CCC(N)=O)C(=O)NC(C)(C)C(=O)N[C@@H](CC(=O)O)C(=O)N[C@@H](Cc1ccccc1)C(=O)N[C@H](C(=O)N[C@@H](CCC(=O)O)C(=O)N[C@@H](Cc1ccncc1)C(=O)N[C@@H](CC(C)C)C(=O)N[C@@H](CC(C)C)C(=O)N[C@@H](C)C(=O)NCC(=O)NCC(=O)N1CCC[C@H]1C(=O)N[C@@H](CO)C(=O)N[C@@H](CO)C(=O)NCC(=O)N[C@@H](C)C(=O)N1CCC[C@H]1C(=O)N1CCC[C@H]1C(=O)N1CCC[C@H]1C(=O)N[C@@H](CO)C(N)=O)C(C)C)[C@@H](C)CC
Human glucagon receptor
  hGcgR cAMP Rel EC50: > 5 µM
[1]
  hGIPR cAMP Rel EC50: 0.03 nM
Human GLP-1 receptor
  hGLP1R cAMP Rel EC50: > 5 µM

B5: Example 84 (peptide)
peptide: Y[Aib]EGTFISDYSI[αMeL]LDEK([AEEA-AEEA-γGlu-C20 diacid])HQ[Aib]DFVE[4Pal]LLAQGPSSGAPPPS-NH2
modifications: N-terminus assumed
SMILES: CC[C@H](C)[C@H](NC(=O)[C@H](Cc1ccccc1)NC(=O)[C@@H](NC(=O)CNC(=O)[C@H](CCC(=O)O)NC(=O)C(C)(C)NC(=O)[C@@H](N)Cc1ccc(O)cc1)[C@@H](C)O)C(=O)N[C@@H](CO)C(=O)N[C@@H](CC(=O)O)C(=O)N[C@@H](Cc1ccc(O)cc1)C(=O)N[C@@H](CO)C(=O)N[C@H](C(=O)N[C@@](C)(CC(C)C)C(=O)N[C@@H](CC(C)C)C(=O)N[C@@H](CC(=O)O)C(=O)N[C@@H](CCC(=O)O)C(=O)N[C@@H](CCCCNC(=O)COCCOCCNC(=O)COCCOCCNC(=O)CC[C@H](NC(=O)CCCCCCCCCCCCCCCCCCC(=O)O)C(=O)O)C(=O)N[C@@H](Cc1c[nH]cn1)C(=O)N[C@@H](CCC(N)=O)C(=O)NC(C)(C)C(=O)N[C@@H](CC(=O)O)C(=O)N[C@@H](Cc1ccccc1)C(=O)N[C@H](C(=O)N[C@@H](CCC(=O)O)C(=O)N[C@@H](Cc1ccncc1)C(=O)N[C@@H](CC(C)C)C(=O)N[C@@H](CC(C)C)C(=O)N[C@@H](C)C(=O)N[C@@H](CCC(N)=O)C(=O)NCC(=O)N1CCC[C@H]1C(=O)N[C@@H](CO)C(=O)N[C@@H](CO)C(=O)NCC(=O)N[C@@H](C)C(=O)N1CCC[C@H]1C(=O)N1CCC[C@H]1C(=O)N1CCC[C@H]1C(=O)N[C@@H](CO)C(N)=O)C(C)C)[C@@H](C)CC
Human glucagon receptor
  hGcgR cAMP Rel EC50: > 5 µM
[1]
  hGIPR cAMP Rel EC50: 0.034 nM
Human GLP-1 receptor
  hGLP1R cAMP Rel EC50: > 5 µM

B6: Example 88 (peptide)
peptide: YXEGTXISDYSIXLDKKHQXDFVEXLLEAGPSSGAPPPS
modifications: Aib2; Iva6; αMeL13; K17((2-[2-(2-Amino-ethoxy)-ethoxy]-acetyl)2-(γ-Glu)-CO-(CH2)18-CO2H); Aib20; 4-Pal25; C-terminal amide
Human glucagon receptor
  hGcgR cAMP Rel EC50: 1.67 µM
[1]
  hGIPR cAMP Rel EC50: 0.0031 nM
Human GLP-1 receptor
  hGLP1R cAMP Rel EC50: > 5 µM

Source: patent publication US20210032299A1 (Eli Lilly, published 2021)
